Data from patent US20150315275A1.

Assays:
[1] = biological target: human B7-H4 expressed on cells (human) (UniProt Q7Z7D3); experiment: saturation binding, flow cytometry on 624mel/B7-H4 cells; negative control used as background
[2] = biological target: human B7-H4 expressed on cells (human) (UniProt Q7Z7D3); experiment: flow cytometry on 624mel/B7-H4 cells, negative control antibody; signal subtracted as background from all other points

Chain of human B7-H4 expressed on cells (human) (Q7Z7D3 other isoform, or with tags, fused parts or gaps limits assumed): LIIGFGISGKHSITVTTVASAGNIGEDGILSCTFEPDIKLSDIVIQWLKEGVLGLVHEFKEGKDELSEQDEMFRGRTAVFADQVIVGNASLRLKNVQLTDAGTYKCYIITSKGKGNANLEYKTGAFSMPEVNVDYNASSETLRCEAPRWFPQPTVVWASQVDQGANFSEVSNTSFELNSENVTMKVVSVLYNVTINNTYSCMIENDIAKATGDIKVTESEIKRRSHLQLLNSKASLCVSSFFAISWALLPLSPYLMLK

average signal (MFI) [1]: 245 MFI
MFI (average background signal) [2]: 245 MFI
Substance: negative control antibody (anti-PD-1 antibody)
